From publication PMC12666738 come the findings set out here.

Numbering of substitutions follows the chain as printed. Names and notes keep the numbering of the source.

In test [1] the target is mRFP-tagged CASK I672V (human) (UniProt O14936). As to the kind of experiment: co-IP; HEK293T cells cotransfected, lysed in RIPA buffer 24 h after transfection; mRFP-tagged CASK precipitated with magnetic RFP-Trap beads, 2 h at 4°C, five washes in RIPA; Western blot.
In test [2] the target is T1, GST-tagged C-terminal domain of CNTNAP2, Q9UHC6.
T1 chain: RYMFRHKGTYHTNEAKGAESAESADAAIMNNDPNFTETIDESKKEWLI
Kind of test: pull-down. Conditions: chain shown with the change; n = 4; His6-signals normalized to GST-signals derived from the same blot; parent: est. 3.1; read off a plot.

The target in test [3] is T2, GST-tagged C-terminal domain of Nrxn1β, Q63373.
T2 chain: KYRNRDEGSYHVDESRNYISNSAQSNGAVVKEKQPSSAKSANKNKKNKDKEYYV
As to the kind of experiment: pull-down. Conditions: chain shown with the change; n = 4; His6-signals normalized to GST-signals derived from the same blot; parent: est. 2.9; read off a plot.

Test [4] concerns the target T3, GST-tagged C-terminal domain of SALM1, Q9ULH4.
T3 chain: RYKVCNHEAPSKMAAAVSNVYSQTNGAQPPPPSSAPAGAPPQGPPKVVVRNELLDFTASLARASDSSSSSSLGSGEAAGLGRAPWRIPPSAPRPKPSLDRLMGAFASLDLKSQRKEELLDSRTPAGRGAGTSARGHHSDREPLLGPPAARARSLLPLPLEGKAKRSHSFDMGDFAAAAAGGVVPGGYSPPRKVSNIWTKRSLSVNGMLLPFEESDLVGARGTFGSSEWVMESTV
Kind of test: pull-down. Conditions: chain shown with the change; n = 4; His6-signals normalized to GST-signals derived from the same blot; parent: est. 0.85; read off a plot.

“HA-tagged Neurexin-1β (from UniProt Q63373 47-468) (natural protein)”: the reduction of bound Nrxn1β against CASK WT in test [1] is 50%.

B1: His6-SUMO-tagged CASK PSG supramodule WT, O14936-2 Y723C (protein)
chain: MADDDVLFEDVYELCEVIGKGPFSVVRRCINRETGQQFAVKIVDVAKFTSSPGLSTEDLKREASICHMLKHPHIVELLETYSSDGMLYMVFEFMDGADLCFEIVKRADAGFVYSEAVASHYMRQILEALRYCHDNNIIHRDVKPHCVLLASKENSAPVKLGGFGVAIQLGESGLVAGGRVGTPHFMAPEVVKREPYGKPVDVWGCGVILFILLSGCLPFYGTKERLFEGIIKGKYKMNPRQWSHISESAKDLVRRMLMLDPAERITVYEALNHPWLKERDRYAYKIHLPETVEQLRKFNARRKLKGAVLAAVSSHKFNSFYGDPPEELPDFSEDPTSSGLLAAERAVSQVLDSLEEIHALTDCSEKDLDFLHSVFQDQHLHTLLDLYDKINTKSSPQIRNPPSDAVQRAKEVLEEISCYPENNDAKELKRILTQPHFMALLQTHDVVAHEVYSDEALRVTPPPTSPYLNGDSPESANGDMDMENVTRVRLVQFQKNTDEPMGITLKMNELNHCIVARIMHGGMIHRQGTLHVGDEIREINGISVANQTVEQLQKMLREMRGSITFKIVPSYRTQSSSCERDSPSTSRQSPANGHSSTNNSVSDLPSTTQPKGRQIYVRAQFEYDPAKDDLIPCKEAGIRFRVGDIIQIISKDDHNWWQGKLENSKNGTAGLIPSPELQEWRVACIAMEKTKQEQQASCTWFGKKKKQYKDKYLAKHNADLVTCEEVVKLPAFKRKTLVLLGAHGVGRRHIKNTLITKHPDRFAYPIPHTTRPPKKDEENGKNYYFVSHDQMMQDISNNEYLEYGSHEDAMYGTKLETIRKIHEQGLIAILDVEPQALKVLRTAEFAPFVVFIAAPTITPGLNEDESLQRLQKESDILQRTYAHYFDLTIINNEIDETIRHLEEAVELVCTAPQWVPVSWVY
For B1, the figures for the response in test [2], in test [3] and in test [4] were 0.45, 0.9 and 0.15, respectively.

B2: His6-SUMO-tagged CASK PSG supramodule WT, O14936-2 P673L (protein)
chain: B1 chain with P673L, C723Y
B2: the response in test [2] came to 0.45; in test [3], 1; in test [4] it was 0.15.

B3: His6-SUMO-tagged CASK PSG supramodule WT, O14936-2 G521V (protein)
chain: MADDDVLFEDVYELCEVIGKGPFSVVRRCINRETGQQFAVKIVDVAKFTSSPGLSTEDLKREASICHMLKHPHIVELLETYSSDGMLYMVFEFMDGADLCFEIVKRADAGFVYSEAVASHYMRQILEALRYCHDNNIIHRDVKPHCVLLASKENSAPVKLGGFGVAIQLGESGLVAGGRVGTPHFMAPEVVKREPYGKPVDVWGCGVILFILLSGCLPFYGTKERLFEGIIKGKYKMNPRQWSHISESAKDLVRRMLMLDPAERITVYEALNHPWLKERDRYAYKIHLPETVEQLRKFNARRKLKGAVLAAVSSHKFNSFYGDPPEELPDFSEDPTSSGLLAAERAVSQVLDSLEEIHALTDCSEKDLDFLHSVFQDQHLHTLLDLYDKINTKSSPQIRNPPSDAVQRAKEVLEEISCYPENNDAKELKRILTQPHFMALLQTHDVVAHEVYSDEALRVTPPPTSPYLNGDSPESANGDMDMENVTRVRLVQFQKNTDEPMGITLKMNELNHCIVARIMHVGMIHRQGTLHVGDEIREINGISVANQTVEQLQKMLREMRGSITFKIVPSYRTQSSSCERDSPSTSRQSPANGHSSTNNSVSDLPSTTQPKGRQIYVRAQFEYDPAKDDLIPCKEAGIRFRVGDIIQIISKDDHNWWQGKLENSKNGTAGLIPSPELQEWRVACIAMEKTKQEQQASCTWFGKKKKQYKDKYLAKHNAVFDQLDLVTYEEVVKLPAFKRKTLVLLGAHGVGRRHIKNTLITKHPDRFAYPIPHTTRPPKKDEENGKNYYFVSHDQMMQDISNNEYLEYGSHEDAMYGTKLETIRKIHEQGLIAILDVEPQALKVLRTAEFAPFVVFIAAPTITPGLNEDESLQRLQKESDILQRTYAHYFDLTIINNEIDETIRHLEEAVELVCTAPQWVPVSWVY
Regarding B3, the response in test [2] is 1.5; in test [3], 0.9; in test [4], 0.7.
